Assay results from PMC6078384 (Journal of structural biology, 2013).

Target: the molecule itself
Assay: SEC

B1: ΔN71–AtTHIC (N-terminally truncated Arabidopsis thaliana THIC, HMP-P synthase, lacking the first 71 amino acids) (enzyme)
chain: not shown
In the case of B1, the “stoichiometry N” value is reported as 2.
